Results reported in the supplement of paper PMC9112550, “Optimization of the antimicrobial peptide Bac7 by deep mutational scanning” (BMC Biology, 2022).
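Note: peptides expressed intracellularly from a pBAD plasmid library in pooled LB shake-flask culture, induced with 0.3% L-arabinose, DNA abundance read by NGS, three biological replicates, DESeq2 with apeglm shrinkage.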

The sequences below were run on Escherichia coli TOP10 (assay: shrunken log2 fold change of peptide-encoding DNA abundance (4.5 h post-induction vs induction); higher = less antimicrobial activity (less host growth inhibition)). Settings: time post-induction: 4.5 h; library: site-saturation at positions 5, 18, 19, 20.
RRIRVRPPRLPRPRPRPNLPPRP was tested, and the “shrunken log2 fold change” value was 0.232. For RRIRCRPPRLPRPRPRPCSWPRP, the “shrunken log2 fold change” value was 0.0276. In the case of RRIRMRPPRLPRPRPRPLRSPRP, the “shrunken log2 fold change” value is reported as 2.47. RRIRYRPPRLPRPRPRPLAPPRP was tested, and the “shrunken log2 fold change” value was 0.107. For RRIRHRPPRLPRPRPRPEYCPRP, the “shrunken log2 fold change” value was -0.201. For RRIRNRPPRLPRPRPRPEFMPRP, the “shrunken log2 fold change” value was 0.0662. In the case of RRIRGRPPRLPRPRPRPMFQPRP, the “shrunken log2 fold change” value is reported as 0.357. With RRIRHRPPRLPRPRPRPAMCPRP the “shrunken log2 fold change” value was -0.148. With RRIRNRPPRLPRPRPRPNSKPRP the “shrunken log2 fold change” value was -0.331. RRIRIRPPRLPRPRPRPIGNPRP was tested, and the “shrunken log2 fold change” value was -0.104. With RRIRCRPPRLPRPRPRPCCNPRP the “shrunken log2 fold change” value was -0.188. RRIRVRPPRLPRPRPRPHYCPRP was tested, and the “shrunken log2 fold change” value was -0.186. In the case of RRIRHRPPRLPRPRPRPLAKPRP, the “shrunken log2 fold change” value is reported as 0.107. In the case of RRIRLRPPRLPRPRPRPMSLPRP, the “shrunken log2 fold change” value is reported as -0.0224. RRIRVRPPRLPRPRPRPCVKPRP was tested, and the “shrunken log2 fold change” value was -0.657. In the case of RRIRNRPPRLPRPRPRPYLRPRP, the “shrunken log2 fold change” value is reported as -0.0191. With RRIRSRPPRLPRPRPRPKWGPRP the “shrunken log2 fold change” value was 0.228. RRIRLRPPRLPRPRPRPPYTPRP was tested, and the “shrunken log2 fold change” value was -0.674. With RRIRRRPPRLPRPRPRPINQPRP the “shrunken log2 fold change” value was 0.0137. With RRIRQRPPRLPRPRPRPSSIPRP the “shrunken log2 fold change” value was -0.0146. For RRIRARPPRLPRPRPRPSRFPRP, the “shrunken log2 fold change” value was 0.125. RRIRQRPPRLPRPRPRPMVMPRP was tested, and the “shrunken log2 fold change” value was 0.0852. In the case of RRIRDRPPRLPRPRPRPFPHPRP, the “shrunken log2 fold change” value is reported as -0.303. For RRIRVRPPRLPRPRPRPTSSPRP, the “shrunken log2 fold change” value was -0.0575. RRIRIRPPRLPRPRPRPGKRPRP was tested, and the “shrunken log2 fold change” value was 0.0192. With RRIRCRPPRLPRPRPRPGLEPRP the “shrunken log2 fold change” value was 0.203. For RRIRRRPPRLPRPRPRPVKMPRP, the “shrunken log2 fold change” value was 0.101. In the case of RRIRMRPPRLPRPRPRPGMGPRP, the “shrunken log2 fold change” value is reported as 0.902. RRIRGRPPRLPRPRPRPYSHPRP was tested, and the “shrunken log2 fold change” value was -0.129. In the case of RRIRERPPRLPRPRPRPSPVPRP, the “shrunken log2 fold change” value is reported as -0.268. In the case of RRIRWRPPRLPRPRPRPPHEPRP, the “shrunken log2 fold change” value is reported as 0.0628. For RRIRARPPRLPRPRPRPLCFPRP, the “shrunken log2 fold change” value was 0.195. RRIRLRPPRLPRPRPRPRIKPRP was tested, and the “shrunken log2 fold change” value was -0.168. RRIRCRPPRLPRPRPRPLHAPRP was tested, and the “shrunken log2 fold change” value was 0.369. With RRIRYRPPRLPRPRPRPVYPPRP the “shrunken log2 fold change” value was -0.208. With RRIRLRPPRLPRPRPRPETWPRP the “shrunken log2 fold change” value was 0.0117. With RRIRERPPRLPRPRPRPAVAPRP the “shrunken log2 fold change” value was 0.0153. In the case of RRIRTRPPRLPRPRPRPITCPRP, the “shrunken log2 fold change” value is reported as -0.223. With RRIRSRPPRLPRPRPRPWFGPRP the “shrunken log2 fold change” value was -0.124. RRIRVRPPRLPRPRPRPKVAPRP was tested, and the “shrunken log2 fold change” value was 0.12. RRIRGRPPRLPRPRPRPATNPRP was tested, and the “shrunken log2 fold change” value was 0.766. RRIRERPPRLPRPRPRPMCNPRP was tested, and the “shrunken log2 fold change” value was -0.0237. In the case of RRIRLRPPRLPRPRPRPTHMPRP, the “shrunken log2 fold change” value is reported as 0.0883. For RRIRARPPRLPRPRPRPQPFPRP, the “shrunken log2 fold change” value was -0.0268. For RRIRNRPPRLPRPRPRPGQCPRP, the “shrunken log2 fold change” value was 0.0172. In the case of RRIRIRPPRLPRPRPRPIQLPRP, the “shrunken log2 fold change” value is reported as -0.058. With RRIRARPPRLPRPRPRPTNCPRP the “shrunken log2 fold change” value was 0.269. RRIRKRPPRLPRPRPRPWVHPRP was tested, and the “shrunken log2 fold change” value was -0.0825. For RRIRERPPRLPRPRPRPLETPRP, the “shrunken log2 fold change” value was -0.0311. RRIRFRPPRLPRPRPRPIMYPRP was tested, and the “shrunken log2 fold change” value was -0.33. For RRIRGRPPRLPRPRPRPTLVPRP, the “shrunken log2 fold change” value was 1.87. In the case of RRIRTRPPRLPRPRPRPCEKPRP, the “shrunken log2 fold change” value is reported as -0.0336. For RRIRFRPPRLPRPRPRPNKHPRP, the “shrunken log2 fold change” value was -0.348. For RRIRARPPRLPRPRPRPVSSPRP, the “shrunken log2 fold change” value was 0.155. With RRIRTRPPRLPRPRPRPEFNPRP the “shrunken log2 fold change” value was 0.085. For RRIRYRPPRLPRPRPRPWIFPRP, the “shrunken log2 fold change” value was -0.505. With RRIRIRPPRLPRPRPRPYWRPRP the “shrunken log2 fold change” value was -0.478. With RRIRARPPRLPRPRPRPAPSPRP the “shrunken log2 fold change” value was 0.787. RRIRWRPPRLPRPRPRPYSFPRP was tested, and the “shrunken log2 fold change” value was -0.107. RRIRGRPPRLPRPRPRPTHRPRP was tested, and the “shrunken log2 fold change” value was 0.454. For RRIRFRPPRLPRPRPRPEPTPRP, the “shrunken log2 fold change” value was 0.805. In the case of RRIRCRPPRLPRPRPRPKYTPRP, the “shrunken log2 fold change” value is reported as -0.511. In the case of RRIRIRPPRLPRPRPRPKRDPRP, the “shrunken log2 fold change” value is reported as -0.106. With RRIRIRPPRLPRPRPRPYAGPRP the “shrunken log2 fold change” value was -0.417. For RRIRRRPPRLPRPRPRPFQKPRP, the “shrunken log2 fold change” value was -0.0282. In the case of RRIRYRPPRLPRPRPRPEPIPRP, the “shrunken log2 fold change” value is reported as -0.103. RRIRKRPPRLPRPRPRPAPEPRP was tested, and the “shrunken log2 fold change” value was 1.26. In the case of RRIRERPPRLPRPRPRPMMKPRP, the “shrunken log2 fold change” value is reported as -0.282. RRIRHRPPRLPRPRPRPGDMPRP was tested, and the “shrunken log2 fold change” value was -0.157. With RRIRNRPPRLPRPRPRPRLGPRP the “shrunken log2 fold change” value was 0.187. RRIRIRPPRLPRPRPRPDTVPRP was tested, and the “shrunken log2 fold change” value was -0.301. With RRIRYRPPRLPRPRPRPWWYPRP the “shrunken log2 fold change” value was -0.139. In the case of RRIRDRPPRLPRPRPRPKCAPRP, the “shrunken log2 fold change” value is reported as 0.169. For RRIRMRPPRLPRPRPRPHVYPRP, the “shrunken log2 fold change” value was -0.207. RRIRIRPPRLPRPRPRPNCYPRP was tested, and the “shrunken log2 fold change” value was -0.923.
